Experimental data reported in patent US20240197872A1.

Target: CD20 on CD20-positive human lymphoma cell lines Raji and Daudi (human) (UniProt P11836)
Assay: cell-based or functional assay

Chain of UniProt P11836 (P11836 whole entry): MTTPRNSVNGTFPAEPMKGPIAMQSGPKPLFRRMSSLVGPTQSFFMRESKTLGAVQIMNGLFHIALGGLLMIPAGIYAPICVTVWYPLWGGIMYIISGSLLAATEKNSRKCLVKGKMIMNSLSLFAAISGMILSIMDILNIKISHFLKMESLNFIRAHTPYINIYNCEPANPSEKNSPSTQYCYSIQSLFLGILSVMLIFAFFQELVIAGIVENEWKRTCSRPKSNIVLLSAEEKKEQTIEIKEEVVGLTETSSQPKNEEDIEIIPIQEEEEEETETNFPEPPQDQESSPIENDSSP

rituximab (commercially available anti-CD20 antibody, Rituxan), conjugated to an ssDNA linker and hybridised to the surface of gdT cells (ACE-gdT-CD20 cells)
percentage of lysed target cells, Daudi, E:T 2:1 (Ctrl-gdT cells without rituximab: 19.68%): 41.2%
percentage of lysed target cells, Daudi, E:T 10:1 (Ctrl-gdT cells without rituximab: 43.66%): 71.2%
percentage of lysed target cells, Raji, E:T 10:1 (Ctrl-gdT cells without rituximab: 43.13%): 69.4%
